Test results: patent US20170233781

Assays:
[1] = system: LPETA sorting signal (SEQ ID NO:29)
[2] = biological target: T1, ENLYFQS substrate (SEQ ID NO:8)
T1 chain: ENLYFQS

[3] = biological target: T2, ENLYFES substrate (SEQ ID NO:1)
T2 chain: ENLYFES

[4] = biological target: T3, ALARR substrate (SEQ ID NO:36)
T3 chain: ALARR

[5] = biological target: T4, ALLPR substrate (SEQ ID NO:46)
T4 chain: ALLPR

[6] = biological target: T5, ALSRR substrate (SEQ ID NO:38)
T5 chain: ALSRR

[7] = biological target: T6, LLCKR substrate (SEQ ID NO:50)
T6 chain: LLCKR

[8] = biological target: T7, LQPRA substrate (SEQ ID NO:51)
T7 chain: LQPRA

[9] = biological target: T8, LRPRA substrate (SEQ ID NO:37)
T8 chain: LRPRA

[10] = biological target: T9, PLLAR substrate (SEQ ID NO:47)
T9 chain: PLLAR

[11] = biological target: T10, PLLPR substrate (SEQ ID NO:42)
T10 chain: PLLPR

[12] = biological target: T11, PLLRR substrate (SEQ ID NO:43)
T11 chain: PLLRR

[13] = biological target: T12, PLRPR substrate (SEQ ID NO:44)
T12 chain: PLRPR

[14] = biological target: T13, PLVPR substrate (SEQ ID NO:48)
T13 chain: PLVPR

[15] = biological target: T14, RLAPR substrate (SEQ ID NO:45)
T14 chain: RLAPR

[16] = biological target: T15, RLLPR substrate (SEQ ID NO:40)
T15 chain: RLLPR

[17] = biological target: T16, RLRPR substrate (SEQ ID NO:39)
T16 chain: RLRPR

[18] = biological target: T17, RLSRR substrate (SEQ ID NO:41)
T17 chain: RLSRR

[19] = biological target: T18, RLTPR substrate (SEQ ID NO:31)
T18 chain: RLTPR

RRRRR substrate = biological target: T19, RRRRR substrate
T19 chain: RRRRR

[20] = biological target: T20, SLRRR substrate (SEQ ID NO:49)
T20 chain: SLRRR

[21] = biological target: T21, SPAKR substrate (SEQ ID NO:32)
T21 chain: SPAKR

[22] = biological target: T22, VARRD substrate (SEQ ID NO:14)
T22 chain: VARRD

For SrtA from S. pyogenes (residues 81-249), the “sortase transpeptidation in yeast ER (FACS, HA-FITC against FLAG-PE)” value [1] was “A positive signal resulted in an increase in HA-FITC signal and decrease in FLAG-PE signal (FIG. 6B), in comparison to the negative control (FIG. 6A)”.

B1: wild-type tobacco etch mosaic virus protease (TEV-P) (protein)
chain: GESLFKGPRDYNPISSTICHLTNESDGHTTSLYGIGFGPFIITNKHLFRRNNGTLLVQSLHGVFKVKNTTTLQQHLIDGRDMIIIRMPKDFPPFPQKLKFREPQREERICLVTTNFQTKSMSSMVSDTSCTFPSSDGIFWKHWIQTKDGQCGSPLVSTRDGFIVGIHSASNFTNTNNYFTSVPKNFMELLTNQEAQQWVSGWRLNADSVLWGGHKVFMSKPEEPFQPVKEATQLMNELVYSQFEHDEL
With B1 the “enrichment of cleaved substrate sequences after FACS sorting (YESS with NextGen sequencing)” value [2] was “significant enrichments of the ENLYFQS (SEQ ID NO:8) sequence were observed for the wide-type TEV-P”.

B2: engineered TEV protease variant TEV-PE10 (S120R, D148R, T173A, N177K, M218I) (protein)
chain: GESLFKGPRDYNPISSTICHLTNESDGHTTSLYGIGFGPFIITNKHLFRRNNGTLLVQSLHGVFKVKNTTTLQQHLIDGRDMIIIRMPKDFPPFPQKLKFREPQREERICLVTTNFQTKRMSSMVSDTSCTFPSSDGIFWKHWIQTKRGQCGSPLVSTRDGFIVGIHSASNFANTNKYFTSVPKNFMELLTNQEAQQWVSGWRLNADSVLWGGHKVFISKPEEPFQPVKEATQLMNELVYSQFEHDEL
In the case of B2, the “enrichment of cleaved substrate sequences after FACS sorting (YESS with NextGen sequencing)” value [3] is reported as “significant enrichments of the ... ENLYFES (SEQ ID NO:1) sequence for the engineered TEV-PE10”.

B3: Kex2 convertase (endogenous, yeast secretory pathway of Saccharomyces cerevisiae EBY100) (protein)
chain: APPMDSSLLPVKEAEDKLSINDPLFERQWHLVNPSFPGSDINVLDLWYNNITGAGVVAAIVDDGLDYENEDLKDNFCAEGSWDFNDNTNLPKPRLSDDYHGTRCAGEIAAKKGNNFCGVGVGYNAKISGIRILSGDITTEDEAASLIYGLDVNDIYSCSWGPADDGRHLQGPSDLVKKALVKGVTEGRDSKGAIYVFASGNGGTRGDNCNYDGYTNSIYSITIGAIDHKDLHPPYSEGCSAVMAVTYSSGSGEYIHSSDINGRCSNSHGGTSAAAPLAAGVYTLLLEANPNLTWRDVQYLSILSAVGLEKNADGDWRDSAMGKKYSHRYGFGKIDAHKLIEMSKTWENVNAQTWFYLPTLYVSQSTNSTEETLESVITISEKSLQDANFKRIEHVTVTVDIDTEIRGTTTVDLISPAGIISNLGVVRPRDVSSEGFKDWTFMSVAHWGENGVGDWKIKVKTTENGHRIDFHSWRLKLFGESIDSSKTETFVFGNDKEEVEPAATESTVSQYSASSTSISISATSTSSISIGVETSAIPQTTTASTDPDSDPNTPKKLSSPRQAMHYFLTIFLIGATFLVLYFMFFMKSRRRIRRSRAETYEFDIIDTDSEYDSTLDNGTSGITEPEEVEDFDFDLSDEDHLASLSSSENGDAEHTIDSVLTNENPFSDPIKQKFPNDANAESASNKLQELQPDVPPSSGRS
With B3 the “substrate cleavage in EBY100 against EBY100^Kex2- (two-colour FACS, FLAG-PE/HA-FITC)” value [4] was “✓”, the “substrate cleavage in EBY100 against EBY100^Kex2- (two-colour FACS, FLAG-PE/HA-FITC)” value [5] was “✓” and the “substrate cleavage in EBY100 against EBY100^Kex2- (two-colour FACS, FLAG-PE/HA-FITC)” value [6] was “✓”. For the same molecule, the “substrate cleavage in EBY100 against EBY100^Kex2- (two-colour FACS)” value (“substrate cleavage … (two-colour FACS)” below) [7] was “All three substrates exhibited cleavage in EBY100 and non-cleavage in EBY100^Kex2-”, the “substrate cleavage … (two-colour FACS)” value [8] was “efficient cleavage in the EBY100 and non-cleavage in the EBY100^Kex2- strain” and the “substrate cleavage in EBY100 against EBY100^Kex2- (two-colour FACS, FLAG-PE/HA-FITC)” value [9] was “✓”. For the same molecule, the “substrate cleavage in EBY100 against EBY100^Kex2- (two-colour FACS, FLAG-PE/HA-FITC)” value [10] was “✓”, the “substrate cleavage in EBY100 against EBY100^Kex2- (two-colour FACS, FLAG-PE/HA-FITC)” value [11] was “✓” and the “substrate cleavage in EBY100 against EBY100^Kex2- (two-colour FACS, FLAG-PE/HA-FITC)” value [12] was “✓”. For the same molecule, the “substrate cleavage in EBY100 against EBY100^Kex2- (two-colour FACS, FLAG-PE/HA-FITC)” value [13] was “✓”, the “substrate cleavage in EBY100 against EBY100^Kex2- (two-colour FACS, FLAG-PE/HA-FITC)” value [14] was “✓” and the “substrate cleavage in EBY100 against EBY100^Kex2- (two-colour FACS, FLAG-PE/HA-FITC)” value [15] was “✓”. The “substrate cleavage in EBY100 against EBY100^Kex2- (two-colour FACS, FLAG-PE/HA-FITC)” value [16] was “✓”, the “substrate cleavage in EBY100 against EBY100^Kex2- (two-colour FACS, FLAG-PE/HA-FITC)” value [17] was “✓” and the “substrate cleavage in EBY100 against EBY100^Kex2- (two-colour FACS, FLAG-PE/HA-FITC)” value [18] was “✓”. The “substrate cleavage in EBY100 against EBY100^Kex2- (two-colour FACS, FLAG-PE/HA-FITC)” value [19] was “✓”, the “substrate cleavage in EBY100 against EBY100^Kex2-” value (RRRRR substrate) was “the RRRRR was also found to be only cleaved in the EBY100 and not in the EBY100^Kex2-” and the “substrate cleavage in EBY100 against EBY100^Kex2- (two-colour FACS, FLAG-PE/HA-FITC)” value [20] was “✓”. For the same molecule, the “substrate cleavage … (two-colour FACS)” value [21] was “All three substrates exhibited cleavage in EBY100 and non-cleavage in EBY100^Kex2-” and the “substrate cleavage … (two-colour FACS)” value [22] was “All three substrates exhibited cleavage in EBY100 and non-cleavage in EBY100^Kex2-”.
